What follows are sequences tested on Escherichia coli TOP10 (assay: shrunken log2 fold change of peptide-encoding DNA abundance (4.5 h post-induction vs induction); higher = less antimicrobial activity (less host growth inhibition)). Conditions: time post-induction: 4.5 h; library: site-saturation at positions 5, 18, 19, 20.
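Note: peptides expressed intracellularly from a pBAD plasmid library in pooled LB shake-flask culture, induced with 0.3% L-arabinose, DNA abundance read by NGS, three biological replicates, DESeq2 with apeglm shrinkage.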

| Sequence | shrunken log2 fold change |
| --- | --- |
| RRIRNRPPRLPRPRPRPTIWPRP | -0.23 |
| RRIRNRPPRLPRPRPRPTLLPRP | -0.168 |
| RRIRNRPPRLPRPRPRPTLPPRP | 0.149 |
| RRIRNRPPRLPRPRPRPTLRPRP | 0.334 |
| RRIRNRPPRLPRPRPRPTLSPRP | 0.145 |
| RRIRNRPPRLPRPRPRPTMRPRP | 0.746 |
| RRIRNRPPRLPRPRPRPTNHPRP | -0.527 |
| RRIRNRPPRLPRPRPRPTPAPRP | 0.713 |
| RRIRNRPPRLPRPRPRPTPFPRP | -0.07 |
| RRIRNRPPRLPRPRPRPTRTPRP | 0.211 |
| RRIRNRPPRLPRPRPRPTRVPRP | 0.376 |
| RRIRNRPPRLPRPRPRPTRWPRP | 0.292 |
| RRIRNRPPRLPRPRPRPTTEPRP | -0.257 |
| RRIRNRPPRLPRPRPRPTVGPRP | -0.0817 |
| RRIRNRPPRLPRPRPRPTVHPRP | -0.514 |
| RRIRNRPPRLPRPRPRPVAGPRP | -0.124 |
| RRIRNRPPRLPRPRPRPVCIPRP | -0.215 |
| RRIRNRPPRLPRPRPRPVCSPRP | -0.19 |
| RRIRNRPPRLPRPRPRPVCVPRP | -0.04 |
| RRIRNRPPRLPRPRPRPVDNPRP | 0.104 |
| RRIRNRPPRLPRPRPRPVFYPRP | -0.19 |
| RRIRNRPPRLPRPRPRPVGGPRP | 0.279 |
| RRIRNRPPRLPRPRPRPVGYPRP | 0.025 |
| RRIRNRPPRLPRPRPRPVHLPRP | -0.138 |
| RRIRNRPPRLPRPRPRPVKDPRP | -0.01 |

| Sequence | shrunken log2 fold change |
| --- | --- |
| RRIRNRPPRLPRPRPRPVKFPRP | -0.0271 |
| RRIRNRPPRLPRPRPRPVKMPRP | -0.107 |
| RRIRNRPPRLPRPRPRPVMLPRP | -0.171 |
| RRIRNRPPRLPRPRPRPVMRPRP | 0.526 |
| RRIRNRPPRLPRPRPRPVPFPRP | 0.041 |
| RRIRNRPPRLPRPRPRPVPKPRP | 0.883 |
| RRIRNRPPRLPRPRPRPVPSPRP | 0.155 |
| RRIRNRPPRLPRPRPRPVQRPRP | -0.186 |
| RRIRNRPPRLPRPRPRPVQSPRP | 0.00489 |
| RRIRNRPPRLPRPRPRPVRTPRP | 0.296 |
| RRIRNRPPRLPRPRPRPVSYPRP | 0.0156 |
| RRIRNRPPRLPRPRPRPVTIPRP | -0.463 |
| RRIRNRPPRLPRPRPRPVTLPRP | -0.3 |
| RRIRNRPPRLPRPRPRPVTRPRP | -0.124 |
| RRIRNRPPRLPRPRPRPVVHPRP | -0.165 |
| RRIRNRPPRLPRPRPRPVWKPRP | 0.119 |
| RRIRNRPPRLPRPRPRPVYGPRP | -0.0867 |
| RRIRNRPPRLPRPRPRPWCGPRP | -0.263 |
| RRIRNRPPRLPRPRPRPWDAPRP | -0.157 |
| RRIRNRPPRLPRPRPRPWDTPRP | -0.0124 |
| RRIRNRPPRLPRPRPRPWEEPRP | -0.00133 |
| RRIRNRPPRLPRPRPRPWFNPRP | -0.448 |
| RRIRNRPPRLPRPRPRPWFQPRP | -0.109 |
| RRIRNRPPRLPRPRPRPWHMPRP | -0.0135 |
| RRIRNRPPRLPRPRPRPWIAPRP | -0.135 |

| Sequence | shrunken log2 fold change |
| --- | --- |
| RRIRNRPPRLPRPRPRPWIEPRP | -0.042 |
| RRIRNRPPRLPRPRPRPWIKPRP | -0.739 |
| RRIRNRPPRLPRPRPRPWIQPRP | -0.209 |
| RRIRNRPPRLPRPRPRPWKVPRP | -1.21 |
| RRIRNRPPRLPRPRPRPWLMPRP | -0.13 |
| RRIRNRPPRLPRPRPRPWMLPRP | -0.0937 |
| RRIRNRPPRLPRPRPRPWMSPRP | -0.0131 |
| RRIRNRPPRLPRPRPRPWNWPRP | -0.0655 |
| RRIRNRPPRLPRPRPRPWNYPRP | -0.101 |
| RRIRNRPPRLPRPRPRPWPHPRP | -0.0312 |
| RRIRNRPPRLPRPRPRPWQKPRP | -0.18 |
| RRIRNRPPRLPRPRPRPWRKPRP | -0.0392 |
| RRIRNRPPRLPRPRPRPWSFPRP | -0.538 |
| RRIRNRPPRLPRPRPRPWSGPRP | -0.173 |
| RRIRNRPPRLPRPRPRPWSIPRP | -0.16 |
| RRIRNRPPRLPRPRPRPWSLPRP | -0.0288 |
| RRIRNRPPRLPRPRPRPWVFPRP | -0.221 |
| RRIRNRPPRLPRPRPRPWVNPRP | -0.00663 |
| RRIRNRPPRLPRPRPRPWVYPRP | -0.0702 |
| RRIRNRPPRLPRPRPRPWYTPRP | 0.0349 |
| RRIRNRPPRLPRPRPRPYAPPRP | -0.702 |
| RRIRNRPPRLPRPRPRPYAQPRP | -0.55 |
| RRIRNRPPRLPRPRPRPYAVPRP | -0.0739 |
| RRIRNRPPRLPRPRPRPYCAPRP | -1.05 |
| RRIRNRPPRLPRPRPRPYCCPRP | -0.564 |

| Sequence | shrunken log2 fold change |
| --- | --- |
| RRIRNRPPRLPRPRPRPYDWPRP | 0.0127 |
| RRIRNRPPRLPRPRPRPYFQPRP | -0.317 |
| RRIRNRPPRLPRPRPRPYHSPRP | -0.654 |
| RRIRNRPPRLPRPRPRPYIGPRP | 0.0261 |
| RRIRNRPPRLPRPRPRPYKIPRP | -0.0214 |
| RRIRNRPPRLPRPRPRPYKKPRP | -0.00559 |
| RRIRNRPPRLPRPRPRPYPKPRP | 0.0245 |
| RRIRNRPPRLPRPRPRPYPQPRP | -0.138 |
| RRIRNRPPRLPRPRPRPYRQPRP | -0.01 |
| RRIRNRPPRLPRPRPRPYRWPRP | -0.147 |
| RRIRNRPPRLPRPRPRPYSIPRP | -0.534 |
| RRIRNRPPRLPRPRPRPYSMPRP | -0.292 |
| RRIRNRPPRLPRPRPRPYTSPRP | -0.325 |
| RRIRNRPPRLPRPRPRPYVNPRP | -0.121 |
| RRIRNRPPRLPRPRPRPYWQPRP | -0.215 |
| RRIRNRPPRLPRPRPRPYYLPRP | -0.673 |
| RRIRPRPPRLPRPRPRPACHPRP | 0.111 |
| RRIRPRPPRLPRPRPRPACRPRP | 0.183 |
| RRIRPRPPRLPRPRPRPADAPRP | 0.29 |
| RRIRPRPPRLPRPRPRPADNPRP | -0.428 |
| RRIRPRPPRLPRPRPRPAEVPRP | -0.0315 |
| RRIRPRPPRLPRPRPRPAFWPRP | 0.459 |
| RRIRPRPPRLPRPRPRPAGAPRP | 0.309 |
| RRIRPRPPRLPRPRPRPAGGPRP | 0.269 |
| RRIRPRPPRLPRPRPRPAHMPRP | -0.0534 |

| Sequence | shrunken log2 fold change |
| --- | --- |
| RRIRPRPPRLPRPRPRPAIMPRP | -0.00756 |
| RRIRPRPPRLPRPRPRPALPPRP | 1.63 |
| RRIRPRPPRLPRPRPRPALVPRP | 0.181 |
| RRIRPRPPRLPRPRPRPAMAPRP | 0.388 |
| RRIRPRPPRLPRPRPRPAMKPRP | 0.162 |
| RRIRPRPPRLPRPRPRPANHPRP | -0.0982 |
| RRIRPRPPRLPRPRPRPANMPRP | -0.219 |
| RRIRPRPPRLPRPRPRPANWPRP | 0.22 |
| RRIRPRPPRLPRPRPRPAPWPRP | 0.436 |
| RRIRPRPPRLPRPRPRPAQMPRP | 0.181 |
| RRIRPRPPRLPRPRPRPAQPPRP | 0.732 |
| RRIRPRPPRLPRPRPRPARAPRP | 0.438 |
| RRIRPRPPRLPRPRPRPARCPRP | 0.67 |
| RRIRPRPPRLPRPRPRPATCPRP | 1.55 |
| RRIRPRPPRLPRPRPRPATDPRP | 0.00951 |
| RRIRPRPPRLPRPRPRPATGPRP | 0.0771 |
| RRIRPRPPRLPRPRPRPATKPRP | 0.29 |
| RRIRPRPPRLPRPRPRPAVGPRP | 0.414 |
| RRIRPRPPRLPRPRPRPAVKPRP | 0.171 |
| RRIRPRPPRLPRPRPRPAVMPRP | 0.215 |
| RRIRPRPPRLPRPRPRPAWAPRP | 0.45 |
| RRIRPRPPRLPRPRPRPAWPPRP | 0.6 |
| RRIRPRPPRLPRPRPRPAYCPRP | -0.215 |
| RRIRPRPPRLPRPRPRPAYDPRP | -0.26 |
| RRIRPRPPRLPRPRPRPCAYPRP | -0.311 |

| Sequence | shrunken log2 fold change |
| --- | --- |
| RRIRPRPPRLPRPRPRPCCHPRP | 0.0505 |
| RRIRPRPPRLPRPRPRPCCMPRP | -0.144 |
| RRIRPRPPRLPRPRPRPCDAPRP | 0.375 |
| RRIRPRPPRLPRPRPRPCDVPRP | -0.155 |
| RRIRPRPPRLPRPRPRPCGGPRP | 0.224 |
| RRIRPRPPRLPRPRPRPCKEPRP | -0.0274 |
| RRIRPRPPRLPRPRPRPCLLPRP | -0.258 |
| RRIRPRPPRLPRPRPRPCLRPRP | -0.183 |
| RRIRPRPPRLPRPRPRPCMYPRP | -0.226 |
| RRIRPRPPRLPRPRPRPCPCPRP | -0.481 |
| RRIRPRPPRLPRPRPRPCPYPRP | -1.08 |
| RRIRPRPPRLPRPRPRPCQSPRP | -0.123 |
| RRIRPRPPRLPRPRPRPCQYPRP | 0.0594 |
| RRIRPRPPRLPRPRPRPCRSPRP | -0.136 |
| RRIRPRPPRLPRPRPRPCSEPRP | -0.00276 |
| RRIRPRPPRLPRPRPRPCTDPRP | -0.0332 |
| RRIRPRPPRLPRPRPRPCTSPRP | -0.0721 |
| RRIRPRPPRLPRPRPRPCVAPRP | 0.51 |
| RRIRPRPPRLPRPRPRPCVLPRP | -0.0304 |
| RRIRPRPPRLPRPRPRPCVPPRP | -0.134 |
| RRIRPRPPRLPRPRPRPCWKPRP | -0.0855 |
| RRIRPRPPRLPRPRPRPCYCPRP | -0.722 |
| RRIRPRPPRLPRPRPRPCYVPRP | -0.469 |
| RRIRPRPPRLPRPRPRPDASPRP | 0.37 |
| RRIRPRPPRLPRPRPRPDDPPRP | -0.0693 |
